Experimental data from the Human Domainome abundance scans (Beltran et al. 2025).
± gives the uncertainty stated by the source.

B1: Pre-mRNA-processing factor 40 homolog B, residues 274 to 332; numbered along this chain, Q6NWY9 (parent)
chain: SNREKAKQAFKELLRDKAVPSNASWEQAMKMVVTDPRYSALPKLSEKKQAFNAYKAQRE

Variants of: B1
Assay: abundance fitness (aPCA) (normalised: wild type 0, dead -1); higher = more abundant; growth selection in yeast, the domain comes from the species named
Conditions: Homo sapiens

Compared with A28D, A28T is higher in abundance fitness: -0.473 ± 0.072 for the first, -0.299 ± 0.054 for the second.

V19E and V19M are within error of each other in abundance fitness: -0.375 ± 0.096 for the first, -0.32 ± 0.095 for the second.

V19R and V19L are within error of each other in abundance fitness: -0.633 ± 0.065 for the first, -0.606 ± 0.084 for the second.

Compared with V19P, M29S is higher in abundance fitness: -0.477 ± 0.11 for the first, -0.136 ± 0.086 for the second.

M29L and M29A are within error of each other in abundance fitness: -0.216 ± 0.093 for the first, -0.125 ± 0.075 for the second.

M29C and M29P are within error of each other in abundance fitness: -0.203 ± 0.1 for the first, -0.103 ± 0.1 for the second.

Going from M29T to Q49F, the abundance fitness falls from -0.282 ± 0.088 to -0.636 ± 0.16.

Q49R and Q49C are within error of each other in abundance fitness: -0.116 ± 0.074 for the first, -0.239 ± 0.16 for the second.

Q49S and Q49H are within error of each other in abundance fitness: -0.162 ± 0.098 for the first, -0.407 ± 0.2 for the second.

First: D16S
Second: D16K
The abundance fitness of the first is higher: -0.486 ± 0.069 for the first, -0.699 ± 0.12 for the second.

First: D16Y
Second: K30R
The abundance fitness of the first is lower: -0.888 ± 0.13 for the first, -0.03 ± 0.062 for the second.

K30M and K30Q are within error of each other in abundance fitness: -0.247 ± 0.11 for the first, -0.072 ± 0.2 for the second.

Compared with K30W, K30P is higher in abundance fitness: -0.999 ± 0.15 for the first, -0.146 ± 0.11 for the second.

S45P and S45T are within error of each other in abundance fitness: -0.369 ± 0.1 for the first, -0.211 ± 0.086 for the second.

S45R and S45W are within error of each other in abundance fitness: -0.303 ± 0.072 for the first, -0.427 ± 0.095 for the second.

First: S45C
Second: S45Q
The abundance fitness of the first is lower: -0.484 ± 0.18 for the first, -0.15 ± 0.11 for the second.

S24I and S24Q are within error of each other in abundance fitness: -0.65 ± 0.19 for the first, -0.422 ± 0.1 for the second.

Compared with S24K, S24W is lower in abundance fitness: -0.229 ± 0.091 for the first, -1 ± 0.13 for the second.

P20V and P20C are within error of each other in abundance fitness: -0.578 ± 0.062 for the first, -0.59 ± 0.095 for the second.

First: P20F
Second: P20K
The abundance fitness of the first is lower: -1.59 ± 0.38 for the first, -0.654 ± 0.12 for the second.

Compared with P20H, P20A is higher in abundance fitness: -0.789 ± 0.16 for the first, -0.451 ± 0.066 for the second.

Going from P20M to R15C, the abundance fitness rises from -0.549 ± 0.083 to -0.171 ± 0.11.

R15Q and R15L are within error of each other in abundance fitness: -0.062 ± 0.14 for the first, -0.097 ± 0.077 for the second.

R15F and R15H are within error of each other in abundance fitness: 0.019 ± 0.13 for the first, 0.064 ± 0.32 for the second.

K11A and K11C are within error of each other in abundance fitness: 0.145 ± 0.084 for the first, 0.061 ± 0.11 for the second.

M31V and M31N are within error of each other in abundance fitness: -0.326 ± 0.084 for the first, -0.364 ± 0.17 for the second.

M31C and M31K are within error of each other in abundance fitness: -0.422 ± 0.12 for the first, -0.293 ± 0.094 for the second.

M31G and L44Q are within error of each other in abundance fitness: -0.231 ± 0.059 for the first, -0.219 ± 0.086 for the second.

L44A and L44M are within error of each other in abundance fitness: -0.12 ± 0.072 for the first, -0.087 ± 0.1 for the second.

L44F and L44K are within error of each other in abundance fitness: -0.574 ± 0.31 for the first, -0.289 ± 0.11 for the second.

T34L and T34V are within error of each other in abundance fitness: -0.358 ± 0.066 for the first, -0.419 ± 0.073 for the second.

First: T34G
Second: T34I
The abundance fitness of the first is higher: 0.108 ± 0.059 for the first, -0.611 ± 0.11 for the second.

T34A and A53S are within error of each other in abundance fitness: 0.028 ± 0.061 for the first, -0.089 ± 0.079 for the second.

A53M and A53P are within error of each other in abundance fitness: -0.394 ± 0.1 for the first, -0.494 ± 0.11 for the second.

A53K and A53V are within error of each other in abundance fitness: -0.174 ± 0.1 for the first, -0.274 ± 0.071 for the second.

Compared with V32M, V32F is lower in abundance fitness: -0.175 ± 0.1 for the first, -0.619 ± 0.13 for the second.

V32G and V32Q are within error of each other in abundance fitness: -0.381 ± 0.055 for the first, -0.428 ± 0.14 for the second.

V32K and V32N are within error of each other in abundance fitness: -0.171 ± 0.11 for the first, -0.294 ± 0.14 for the second.

L41D and L41Y are within error of each other in abundance fitness: -0.439 ± 0.12 for the first, -0.34 ± 0.2 for the second.

L41Q and L41E are within error of each other in abundance fitness: -0.295 ± 0.12 for the first, -0.189 ± 0.084 for the second.

A56Q and A56S are within error of each other in abundance fitness: 0.027 ± 0.086 for the first, -0.016 ± 0.069 for the second.

A56K and A56T are within error of each other in abundance fitness: -0.015 ± 0.086 for the first, -0.122 ± 0.099 for the second.

First: A56F
Second: A56V
The abundance fitness of the first is lower: -0.526 ± 0.16 for the first, -0.076 ± 0.069 for the second.

First: A56G
Second: A56L
The abundance fitness of the first is lower: -0.242 ± 0.053 for the first, 0.034 ± 0.074 for the second.

A9Q and A9V are within error of each other in abundance fitness: -0.041 ± 0.13 for the first, 0.003 ± 0.077 for the second.

Going from A9I to A9W, the abundance fitness falls from 0.081 ± 0.13 to -0.72 ± 0.096.

A9F and A9H are within error of each other in abundance fitness: -0.563 ± 0.35 for the first, -0.458 ± 0.13 for the second.

Going from A9P to A9S, the abundance fitness rises from -0.536 ± 0.11 to -0.106 ± 0.1.

A9L and R58T are within error of each other in abundance fitness: -0.092 ± 0.088 for the first, -0.108 ± 0.14 for the second.

R58V and R58S are within error of each other in abundance fitness: 0.085 ± 0.1 for the first, -0.008 ± 0.093 for the second.

First: R58I
Second: R58Y
The abundance fitness of the first is lower: -0.648 ± 0.29 for the first, 0.1 ± 0.28 for the second.

First: R58M
Second: W25K
The abundance fitness of the first is higher: 0.184 ± 0.13 for the first, -0.221 ± 0.14 for the second.

W25E and W25N are within error of each other in abundance fitness: -0.095 ± 0.092 for the first, 0.038 ± 0.12 for the second.

W25A and W25R are within error of each other in abundance fitness: -0.244 ± 0.082 for the first, -0.189 ± 0.057 for the second.

L13Y and L13T are within error of each other in abundance fitness: -0.559 ± 0.16 for the first, -0.48 ± 0.093 for the second.

L13K and L13C are within error of each other in abundance fitness: -0.388 ± 0.11 for the first, -0.244 ± 0.12 for the second.

Compared with L13R, L13A is higher in abundance fitness: -0.491 ± 0.066 for the first, -0.327 ± 0.063 for the second.

L13Q and Q8R are within error of each other in abundance fitness: -0.286 ± 0.14 for the first, -0.241 ± 0.058 for the second.

Q8Y and Q8N are within error of each other in abundance fitness: -0.49 ± 0.24 for the first, -0.585 ± 0.15 for the second.

Q8P and Q8H are within error of each other in abundance fitness: -0.42 ± 0.11 for the first, -0.341 ± 0.21 for the second.

N52R and N52S are within error of each other in abundance fitness: -0.053 ± 0.066 for the first, -0.072 ± 0.075 for the second.

N52Q and N52Y are within error of each other in abundance fitness: 0.062 ± 0.15 for the first, -0.21 ± 0.14 for the second.

Going from N52F to N52A, the abundance fitness rises from -0.901 ± 0.49 to -0.09 ± 0.079.

N52E and S1K are within error of each other in abundance fitness: 0.253 ± 0.073 for the first, 0.135 ± 0.18 for the second.

Going from S1L to S1P, the abundance fitness falls from 0.045 ± 0.18 to -0.478 ± 0.25.

S1T and S1C are within error of each other in abundance fitness: -0.032 ± 0.15 for the first, 0.042 ± 0.16 for the second.

First: S1R
Second: S1W
The abundance fitness of the first is higher: -0.084 ± 0.13 for the first, -0.417 ± 0.092 for the second.

Going from S1A to E12S, the abundance fitness falls from -0.015 ± 0.15 to -0.283 ± 0.083.

E12C and E12M are within error of each other in abundance fitness: -0.602 ± 0.13 for the first, -0.705 ± 0.14 for the second.

E12W and E12Y are within error of each other in abundance fitness: -1.15 ± 0.17 for the first, -0.817 ± 0.27 for the second.

E12T and E12A are within error of each other in abundance fitness: -0.301 ± 0.13 for the first, -0.231 ± 0.075 for the second.

P36F and P36N are within error of each other in abundance fitness: -0.307 ± 0.13 for the first, -0.418 ± 0.17 for the second.

Going from P36L to P36Q, the abundance fitness rises from -0.63 ± 0.07 to -0.289 ± 0.13.

P36S and P36C are within error of each other in abundance fitness: -0.366 ± 0.075 for the first, -0.381 ± 0.11 for the second.

K17L and K17I are within error of each other in abundance fitness: -0.605 ± 0.089 for the first, -0.651 ± 0.15 for the second.

Compared with K17E, K17M is higher in abundance fitness: -0.437 ± 0.097 for the first, -0.038 ± 0.11 for the second.

K17Y and K17A are within error of each other in abundance fitness: -0.189 ± 0.18 for the first, -0.106 ± 0.072 for the second.

Going from K17Q to K17D, the abundance fitness falls from -0.213 ± 0.13 to -0.72 ± 0.13.

K17P and K17C are within error of each other in abundance fitness: -0.573 ± 0.13 for the first, -0.38 ± 0.12 for the second.

First: K17G
Second: K17H
The abundance fitness of the first is lower: -0.599 ± 0.075 for the first, -0.239 ± 0.2 for the second.

S39Q and S39M are within error of each other in abundance fitness: -0.191 ± 0.16 for the first, -0.053 ± 0.19 for the second.

Going from S39E to S39P, the abundance fitness falls from 0.102 ± 0.11 to -0.527 ± 0.14.

Going from S39N to S39Y, the abundance fitness falls from 0.333 ± 0.17 to -0.247 ± 0.12.

S39H showed an abundance fitness of 0.098 ± 0.11.
